Substrate: N[C@@H](CCC(=O)N[C@@H](CS)C(=O)NCC(=O)O)C(=O)O
Test: purified protein
Conditions: G-site

B1: MmGSTP1-1 (Mus musculus) (protein)
chain: PPYTIVYFPVRGRCEAMRMLLADQGQSWKEEVVTIDTWMQGLLKPTCLYGQLPKFEDGDLTLYQSNAILRHLGRSLGLYGKNQREAAQMDMVNDGVEDLRGKYVTLIYTNYENGKNDYVKALPGHLKPFETLLSQNQGGKAFIVGDQISFADYNLLDLLLIHQVLAPGCLDNFPLLSAYVARLSARPKIKAFLSSPEHVNRPINGNGKQ
- Km: 220 ± 10 µM
